{"source": "patent US20250296984A1", "about": "“THERAPEUTIC AND DIAGNOSTIC AGENTS AND USES THEREOF” (priority 2022, published 2025)", "key": {"[1]": {"target": "T1, US28 of HCMV strain TB40/E on CHO cells (Human cytomegalovirus, UniProt P69332, A8T/D15E/E18L/V24T)", "T1 construct": "expressed in transfected cells; host or cells: CHO cells", "assay": "FACS binding to CHO cells expressing TB40/E form of US28", "conditions": "FIG. 21C", "text": "The plasmids carrying the DNA for the TB40/E, VHL/E, and Merlin constructs and mutated US28 strain (SEQ ID Nos: 254, 272, 273 and 255, respectively) were also manufactured in the similar manner.\n(§1) Flowcytometry was used to analyze cell surface binding by the US28 antibodies. Upon cell harvest, adherent non-infected and US28 overexpressing or HCMV infected cells were washed three times with cell staining buffer (phosphate-buffered saline (PBS (Amresco, Cleveland, 44139, USA) added 0.5% BSA and 0.05% Sodium Azide (NaN3)). The cells were trypisinized and then resuspended in DMEM with 10% FBS to inhibit the action of trypsin. The cells were then pelleted at 400×g for 10 minutes and washed three times in cell staining buffer. Cell viability and cell concentration were measured by tryphan blue viability assay and a cell counter (Countess, Invitrogen, Carlsbad, CA 92008, USA). The cell suspension was adjusted to 1×10^6 cells/mL with ice-cold cell staining buffer. The cells were blocked in 1 ml 10% FBS or 1% BSA in PBS per 1×10^6 cells, vortexed briefly, and incubated for 10-30 minutes to eliminate non-specific staining. The cells were then stained with the respective antibodies and appropriate negative controls. […]"}, "[2]": {"tested_on": "human primary cells (adrenal cortical, kidney epithelial, cardiac microvascular endothelial, liver epithelial, vein smooth muscle)", "assay": "FACS off-target binding to human primary cells", "conditions": "FIG. 19 A", "experimental": "Primary cells from different tissue origin were cultured in T25 flasks coated with 3 mL Gelatin-Based Coating Solution (Cellbiologeics, 6950) and placed at 37° C. for 1h. Excess solution was aspirated before cell seeding. 15 mL centrifuge tube were prepared with 6 mL preheated complete medium. Primary cells stored in liquid nitrogen were quickly thawed in 37° C. water bath for <1 min, and transferred to the 15 mL centrifuge tube. Cells were centrifuged at 1000 rpm for 5 minutes, before aspirating the supernatant and resuspending the cell pellet in 6 mL complete medium. Resuspended cells were added into the pre-coated T25 flask, and incubated in a humidified incubator at 37° C. with 5% CO2. […]\nas §1, with “USA).” for “USA). The cell suspension was adjusted to 1×10^6 cells/mL with ice-cold cell staining buffer. The cells were blocked in 1 ml 10% FBS or 1% BSA in PBS per 1×10^6 cells, vortexed briefly, and incubated for 10-30 minutes to eliminate non-specific staining. The cells were then stained with the respective antibodies and appropriate negative controls.”"}}, "data": [{"molecule": "13-5G6-1D3: mouse monoclonal IgG1 kappa antibody against US28 ECD3; VH SEQ ID NO: 12, VL SEQ ID NO: 18 (antibody, V domains shown, Mature form of VH sequence of 1D3, without the leader sequence; Mature form of VL sequence of 1D3, without the leader sequence) VH: EVKLVESGGGLVQPGGSLRLACATSGFTFTDYYMSWVRQPPGKALEWLGFIRSKANGYTTEYSASVKGRFTISRDNSQSILYLQMNTLRSEDSATYYCARDERRTAWLAYWGQGTLVTVSA VL: DVLMTQTPLSLPVSLGDQASISCRSSQSIVHSNGNTYLDWYLQKPGQSPKLLIYKVSNRFSGVPDRFSGSGSGTDFTLKISRVEAEDLGVYYCFQGSHVPTWTFGGGTKLEIK", "values": [{"measurement": "% change in absolute levels of binding between DB and TB40/E forms of US28", "setting": "[1]", "value": "less than 10%"}, {"measurement": "surface binding on human primary cells", "setting": "[2]", "value": "< 1", "unit": "%"}]}]}
